Experimental data: PMC3143299 (Journal of molecular biology, 2011)
Where “and” joins values, the source holds several entries; their conditions need not be identical. Equal entries are not always repeated.

How the values were obtained:
[1] = target: actin purified from rabbit skeletal muscle (F-actin) (rabbit, UniProt P68135 1-377); experiment: co-sedimentation
cross-linking = target: the molecule itself; experiment: cross-linking

Kd [1]: 160 ± 30 nM | stoichiometry N [1]: 2 FRG1 per actin monomer
B1: recombinant full-length human FRG1 (His-tagged) (natural protein)
chain: not shown
stoichiometry N (cross-linking): 2 and 4
